Measurements from doi:10.1101/2022.10.31.514592 (bioRxiv, 2022).

B1: S626-161 IgG (antibody, V domains shown)
VH: QLQLQESGPGLVKPSEALSLTCTVSGGSISTSNYYWGWIRQPPGKGLEWIGSIYYRGGTHYNPSLKTRVTISVDTSKNQFSLKLSSVTAADTAVYYCARHTYFYDIVGAAVWEPFDIWGQGTMVTVSS
VL: not shown
B2: S728-1157 IgG (antibody, V domains shown)
VH: EVQLVESGGGLVQPGGSLRLSCAASGLLVSRNYMNWVRQAPGKGLEWVSIIYSGGSTFYADSVEGRFTISRDESKNTLYLQMNSLRTDDTAVYYCARDLSDYGGIDCWGQGTLVTVSS
VL: ELTQPLSVSMALGQTARISCGGDNVGSQNVHWYQQRPGQAPVLVIYRDSNRPSGIPERFSGSKSGNTATLTISRAQAGDEADYYCQVWDSSTVAFGGGTKLTVL
B3: S451-1140 IgG (antibody, V domains shown)
VH: EVQLVESGGGLVPPGGSLRLSCAASGFIFSNYAMTWVRQAPGKGLEWVSAISGGGGSTDYADSVKGRFTISRDNSKNTLYLQMNSLRAEDTAVYYCAKDLFGSGWSLFDNWGQGTLVTVSS
VL: not shown

Tests used:
SARS-CoV-1 RBD = SARS-CoV-1 RBD (SARS-CoV-1, strain , UniProt P59594); assay: ELISA
SARS-CoV-2 WT RBD = SARS-CoV-2 WT RBD (SARS-CoV-2, wildtype (Wuhan-Hu-1 type), UniProt P0DTC2); assay: ELISA

Binder | binding result (SARS-CoV-1 RBD) | binding result (SARS-CoV-2 WT RBD)
B1 | binds | binds
B2 |  | binds
B3 |  | binds
